# Laboratory results published in patent publication US20180291088A1.
# Several values for one entry are separate records, joined by “and”; a condition that tells them apart may be missing. Equal entries are not always repeated.
# B1: EVB100 monoclonal antibody (antibody, V domains shown)
# VH: QVQLQESGPGLVKPSDTLSLTCTVSGGSLSSFYWSWIRQPPGKGLEWIGYIYYSGSPNYSPSLESRVTMSVDTTRNQISLKLDSVTAADTAVYYCVRASRSYYWGSYRPTAFDSWGQGTLVTVSS
# VL: SYELTQPLSVSVSPGQTAIFTCSGDNLGDKYVCWFQQRPGQSPMLLIYQDNKRPSGIPERFSGSNSGNTATLTISGTQSTDEADYYCQTWDSTVVFGGGTKLTVL
# B2: EVB114 monoclonal antibody (antibody, V domains shown)
# VH: EVQLVESGGGLIQPGGSLRLSCAASGFALRMYDMHWVRQTIDKRLEWVSAVGPSGDTYYADSVKGRFAVSRENAKNSLSLQMNSLTAGDTAIYYCVRSDRGVAGLFDSWGQGILVTVSS
# VL: DIQMTQSPSSLSASVGDRITITCRASQAFDNYVAWYQQRPGKVPKLLISAASALHAGVPSRFSGSGSGTHFTLTISSLQPEDVATYYCQNYNSAPLTFGGGTKVEIK
# B3: EVB165 monoclonal antibody (antibody, V domains shown)
# VH: DVQLVESGGGVVQPGGSLKLACVVSGFRFSDYWMSWVRQAPGKGLEWVANIKQDGSGKYYVDSVKGRFTVSRDNAKNSLYLHMTSLGAEDTAVYFCARAAPTGSYTNILVDNVHFDYWGQGILVAVSS
# VL: GIQLTQSPGSLSASVGDSVTITCRPNQNIATYINWYQQTPGKAPKLLIYAASILQSGVPSRFSGAGSGTHFTLIISTLQPEDSATYYCQQSYSTPWTFGQGTKVEIK
# B4: EVB166 monoclonal antibody (antibody, V domains shown)
# VH: QVQLVQSGAEVKKPGSSVKVSCKTSGGTLSNYAISWVRQAPGQGLEWMGGTIPTLGMSTYAPNFQGRVAITADKSTSTAYMELSSLRSDDTAVYYCATMGSADTSFYFYMDVWGKGTTVTVSS
# VL: EIVLTQSPGTLSLSPGERATLSCRASQSVSSSYLAWYQQKPGQAPRLLIYGTSSRATGIPDRFSGSASGTDFTLTISRLEPEDFAVYYCQQYAYSPFTFGPGTKVDIK
# B5: EVB167 monoclonal antibody (antibody, V domains shown)
# VH: AVQLVQSGAEVKKPGTTVKISCKVSGYTFIQEYIHWVQQAPGKGLVWMGLGDPENNETLYSEDFQGRVTMTADTSSDTAYLELRSLTFADTAVYFCTSRKSWWGQGTLVTVAS
# VL: ELVLTQSPGTLSLSPGESATLSCRASQSLSSDSVSWFQQKPGQAPRLVIHGTSKRATGIPDRFSGGGSGTDFTLTIARLEPEDFAVYYCQRSGYGMSVTWTFGQGTTVEIK
# How the values were obtained:
# [1] = target: EBOV GP on pseudotyped lentivirus particles (EBOV , Mayinga) (UniProt Q05320); assay: cell-based or functional assay
# [2] = target: EBOV GP on pseudotyped lentivirus particles (EBOV , Mayinga), Q05320; assay: cell-based or functional assay
# [3] = target: EBOV GP , coated on ELISA plates (EBOV , Mayinga) (UniProt Q05320)
# [4] = target: EBOV GP , coated on ELISA plates (EBOV , Mayinga) (UniProt Q05320); remark: listed apart in the source
Molecule,maximum inhibition of input pseudovirus [2] [%],EC50 [3] [mg/L],further results
13C6 monoclonal antibody,–,–,neutralization of pseudovirus at 10 µg/mL [1]: < 20%
KZ52 monoclonal antibody,–,–,maximum inhibition of input pseudovirus [1]: 80% and 90%
B1,100,0.26,–
B2,100,0.07,"maximal binding, higher than the other mAbs [3]: 100%"
B3,100,> 1,Abs 450 [4]: 3.17 A450 and 1.72 A450
B4,100,–,–
B5,–,–,Abs 450 [4]: 3.37 A450 and 2.97 A450
